The source of these data is publication doi:10.1101/2025.08.15.670450 (2025).

As a reminder, the Kd is a measure of binding affinity in units of concentration. Read a low Kd as higher affinity.

Experiment [1] has as its target GDM_VEGFA_54. Kind of experiment: BLI. In general terms: In BLI a coated tip is dipped into the sample, and binding shifts an interference pattern.
In a further experiment the target is VEGF-A_Binder_13. Kind of experiment: BLI.
Experiment [2] addresses VEGF-A Binder 13. Kind of experiment: BLI; KD1.
Experiment [3] concerns the target VEGF-A Binder 13. Kind of experiment: BLI; KD2, second site.
For experiment [4], the target named is GDM_VEGFA_54. Kind of experiment: reported in original publication.

B1: Vascular Endothelial Growth Factor A (VEGF-A) (ligand)
chain: MTDRQTDTAPSPSYHLLPGRRRTVDAAASRGQGPEPAPGGGVEGVGARGVALKLFVQLLGCSRFGGAVVRAGEAEPSGAARSASSGREEPQPEEGEEEEEKEEERGPQWRLGARKPGSWTGEAAVCADSAPAARAPQALARASGRGGRVARRGAEESGPPHSPSRRGSASRAGPGRASETMNFLLSWVHWSLALLLYLHHAKWSQAAPMAEGGGQNHHEVVKFMDVYQRSYCHPIETLVDIFQEYPDEIEYIFKPSCVPLMRCGGCCNDEGLECVPTEESNITMQIMRIKPHQGQHIGEMSFLQHNKCECRPKKDRARQEKKSVRGKGKGQKRKRKKSRYKSWSVPCGPCSERRKHLFVQDPQTCKCSCKNTDSRCKARQLELNERTCRCDKPRR
Turning to B1, the Kd with GDM_VEGFA_54 [1] stood at 10.1 nM; with VEGF-A_Binder_13, 13.4 nM; with VEGF-A Binder 13 [2] it was 26.4 nM; with VEGF-A Binder 13 [3], 86.4 nM; with GDM_VEGFA_54 [4], 0.48 nM.
